The text below walks through data of IntAct's records for PubMed 25893917.

The chains are these.
B1: Twist-related protein 1 (Mus musculus), P26687 (parent)
chain: MMQDVSSSPVSPADDSLSNSEEEPDRQQPASGKRGARKRRSSRRSAGGSAGPGGATGGGIGGGDEPGSPAQGKRGKKSAGGGGGGGAGGGGGGGGGSSSGGGSPQSYEELQTQRVMANVRERQRTQSLNEAFAALRKIIPTLPSDKLSKIQTLKLAARYIDFLYQVLQSDELDSKMASCSYVAHERLSYAFSVWRMEGAWSMSASH
partner: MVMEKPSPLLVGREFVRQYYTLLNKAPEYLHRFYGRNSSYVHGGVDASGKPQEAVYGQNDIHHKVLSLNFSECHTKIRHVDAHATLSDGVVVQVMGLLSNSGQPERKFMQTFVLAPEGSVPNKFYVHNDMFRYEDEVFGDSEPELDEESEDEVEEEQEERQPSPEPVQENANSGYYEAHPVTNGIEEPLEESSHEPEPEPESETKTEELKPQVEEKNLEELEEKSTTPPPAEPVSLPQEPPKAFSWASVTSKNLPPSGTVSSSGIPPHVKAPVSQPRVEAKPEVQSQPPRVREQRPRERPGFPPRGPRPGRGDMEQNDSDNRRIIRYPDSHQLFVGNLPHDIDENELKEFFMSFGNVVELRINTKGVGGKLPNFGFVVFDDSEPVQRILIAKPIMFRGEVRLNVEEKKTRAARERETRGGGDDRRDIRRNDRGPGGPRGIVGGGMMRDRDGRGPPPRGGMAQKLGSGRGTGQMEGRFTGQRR

Variants of B1 are the subject of this assay. The following applies: with G3BP2, Q9UN86.
For MMQDVSSSPVSPADDSLSNSEEEPDRQQPASGKRGARKRRSSRRSAGGSAGPGGATGGGIGGGDEPGSPAQGKRGKKSAGGGGGGGAGGGGGGGGGSSSGGGSPQSEEELQTQRVMANVRERQRTQSLNEAFAALRKIIPTLPSDKLSKIQTLKLAARYIDFLYQVLQSDELDSKMASCSYVAHERLSYAFSVWRMEGAWSMSASH [Y107E], the “effect of a mutation on the interaction” value was “decreasing interaction strength”.
